The values that follow come from patent publication US20170121425A1 (ACADEMIA SINICA, published 2017).

The target of test [1] is Fc region of human IgE (ε.Fc 2-4), Ser226 to Gly599, N265Q and N371Q (human) (UniProt P01854). Kind of test: ELISA, ε.Fc 2-4 coated, antibody titrated.
Test [2] has the same target. The experiment in a line: ELISA, ε.Fc 2-4 coated on the plate, antibody titrated, OD450. On the technique in general: In an ELISA, binding on a coated surface is turned into a signal by an enzyme label.
For test [3] the target is unchanged. Kind of test: competitive ELISA on coated ε.Fc 2-4; competitor HRP-conjugated c8D6.
In test [4] the target is T1, mIgE.FcS (CH2-cytoplasmic tail of the short form of human membrane ε chain) on Ramos cells (human, UniProt P01854-3 104-494, limits assumed).
T1 construct: domain: CH2-cytoplasmic tail of the short form of membrane ε chain; also called mIgE.FcS Ramos
The experiment in a line: flow cytometry on mIgE.FcS-expressing Ramos cells; c8D6, not hu8D6. On the procedure:
(§1) Ramos cells expressing mIgE.FcL or mIgE.FcS were resuspended in FACS buffer (1% FBS and 0.1% sodium azide in 1×PBS) at a cell density of 2×10⁶ cells/mL. […] Bound antibodies were detected by FITC-labeled goat IgG specific for human IgG-Fc (Caltag Laboratories). The stained cells were analyzed on a FACS Canto II flow cytometer (BD Biosciences). The geometric means of fluorescence intensity for the binding of antibodies to Ramos cell lines were analyzed using the FCSExpress software (DeNono software). The EC₅₀ was calculated using the Prism software.
(In general: In flow cytometry, cells or beads pass a laser one at a time.)

For test [5], the target named is T2, mIgE.FcL (CH2-cytoplasmic tail of the long form of human membrane ε chain) on Ramos cells (human, UniProt P01854 104-546, limits assumed).
T2 construct: domain: CH2-cytoplasmic tail of the long form of membrane ε chain; also called mIgE.FcL Ramos
Kind of test: flow cytometry on mIgE.FcL-expressing Ramos cells, FITC anti-human IgG-Fc detection, geometric mean intensity. On the procedure:
as §1

In test [6] the target is T1, mIgE.FcS (CH2-cytoplasmic tail of the …). The experiment in a line: flow cytometry on mIgE.FcS-expressing Ramos cells, FITC anti-human IgG-Fc detection, geometric mean intensity. On the procedure: as §1
Test [7] addresses Fc region of human IgE (ε.Fc 2-4), Ser226 to Gly599, N265Q and N371Q (human) (UniProt P01854). The experiment in a line: competition ELISA on coated ε.Fc 2-4; competitor HRP-conjugated c8D6 at fixed dilution, unconjugated antibody titrated.

Fc region of human IgE (ε.Fc 2-4), Ser226 to Gly599, N265Q and N371Q (human), sequence (P01854 106-427, stated change not applied): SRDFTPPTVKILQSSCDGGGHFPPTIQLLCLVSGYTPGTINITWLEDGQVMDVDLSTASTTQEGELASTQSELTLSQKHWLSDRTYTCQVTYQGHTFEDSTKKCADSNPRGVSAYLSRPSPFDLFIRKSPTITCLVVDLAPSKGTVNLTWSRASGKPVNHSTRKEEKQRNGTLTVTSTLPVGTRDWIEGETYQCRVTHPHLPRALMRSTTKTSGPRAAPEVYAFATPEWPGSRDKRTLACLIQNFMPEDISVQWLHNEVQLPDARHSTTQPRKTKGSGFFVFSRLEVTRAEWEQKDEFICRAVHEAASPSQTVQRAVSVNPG
T1 sequence (P01854 other isoform, or with tags, fused parts or gaps limits assumed): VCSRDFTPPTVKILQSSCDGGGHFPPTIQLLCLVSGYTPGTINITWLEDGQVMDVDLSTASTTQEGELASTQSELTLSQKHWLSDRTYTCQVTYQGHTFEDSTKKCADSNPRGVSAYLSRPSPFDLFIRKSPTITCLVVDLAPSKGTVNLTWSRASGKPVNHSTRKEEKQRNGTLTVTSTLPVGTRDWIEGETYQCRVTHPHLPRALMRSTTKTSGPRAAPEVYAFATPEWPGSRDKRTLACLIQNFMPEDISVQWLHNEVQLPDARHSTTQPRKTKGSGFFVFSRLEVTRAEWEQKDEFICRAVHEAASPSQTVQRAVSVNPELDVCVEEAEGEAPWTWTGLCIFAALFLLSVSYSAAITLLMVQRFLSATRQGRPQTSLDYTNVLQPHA
T2 sequence (P01854 104-546 limits assumed, form in doubt): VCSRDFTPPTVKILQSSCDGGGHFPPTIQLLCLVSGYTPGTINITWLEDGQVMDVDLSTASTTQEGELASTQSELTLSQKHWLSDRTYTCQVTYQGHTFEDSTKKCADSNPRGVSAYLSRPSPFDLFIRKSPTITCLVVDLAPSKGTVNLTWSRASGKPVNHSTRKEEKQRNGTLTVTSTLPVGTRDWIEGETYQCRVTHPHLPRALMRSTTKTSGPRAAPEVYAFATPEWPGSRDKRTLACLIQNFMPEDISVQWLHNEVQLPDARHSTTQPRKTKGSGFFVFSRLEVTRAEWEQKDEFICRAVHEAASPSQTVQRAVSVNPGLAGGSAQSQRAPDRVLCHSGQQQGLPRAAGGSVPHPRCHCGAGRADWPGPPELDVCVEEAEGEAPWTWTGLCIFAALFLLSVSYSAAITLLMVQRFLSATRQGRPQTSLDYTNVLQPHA

B1: chimeric 8D6 antibody (antibody, V domains shown)
VH: QVQLQQSGAELAKPGASVMLSCKASGYTFNGYWMHWVKQRPGQDLEWIGYINPTTGHTEYNQKFKDKATLTADESSNTAYIELSSLTSDDSAVYYCARQEYRHSWFAYWGQGTLVTVSA
VL: DIVLTQSPASLAVSLGQRATISCKASQSVDYDGDTYMNWYHQKPGQPPKLLIYAASNLDSGIPARFSGSGSGTDFTLNIHPVEEEDAATYYCQQTNEDPWTFGGGTKLEIK
notes: c8D6 is the chimeric form of 8D6 with human constant regions (detected with anti-human IgG-Fc); also called parent c8D6 antibody; HRP-conjugated c8D6
Consider B1, for which the half-maximal effective concentration (EC50) (usually the concentration needed to bring the measured effect to its halfway point) amounted to 0.116 nM in test [1] and 0.3 nM in test [4]. For the same molecule, the figures for the EC50 (read off the curve) in test [2], in test [5] and in test [6] were 0.02 µg/mL, approximately 0.03 µg/mL and approximately 0.04 µg/mL, respectively. In test [3], the 50% inhibitory concentration (IC50) (commonly the concentration that inhibits the measured activity by half) stood at 2.28 nM. This molecule also yielded an IC50 (read off the curve) in test [7] of 0.4 µg/mL.
